The record followed here is FireProtDB.

“And” between values parts separate entries of the source, which are not always exact repeats. Identical values can stand only once.

The conditions of the data set: whole UniProt chain shown.
The mark [1] stands for this setting: Homo sapiens, pH 5.2, 20 °C, GdnHCl, CD, Sodium acetate 20 mM, reversible: yes.
[2] abbreviates: Homo sapiens, pH 6.2, 25 °C, 2-Propanol, CD, Piperazine Unknown, NaCl 30 mM, transition: 2, reversible: Yes.
[3] abbreviates: Halobacterium salinarum (strain ATCC 700922 / JCM 11081 / NRC-1), pH 6.5, Thermal, DSC, None, reversible: no.
[4] abbreviates: Halobacterium salinarum (strain ATCC 700922 / JCM 11081 / NRC-1), pH 7, Thermal, DSC, Potassium phosphate 3 mM, KCl 150 mM, reversible: no.
[5] abbreviates: Geobacillus stearothermophilus, pH 8, 25 °C, Urea, CD, Sodium phosphate 20 mM, NaCl 100 mM, reversible: Yes.
Where [6] appears, read: Geobacillus stearothermophilus, pH 8, 25 °C, Urea, CD, sodium phosphate 20 mM, sodium chloride 100 mM, reversible: yes.
Setting [7] is: Geobacillus stearothermophilus, pH 8, 25 °C, Urea, Fluorescence, Sodium phosphate 20 mM, NaCl 100 mM, reversible: Yes.

B1: Lysozyme C wild type, P61626 (protein)
chain: MKALIVLGLVLLSVTVQGKVFERCELARTLKRLGMDGYRGISLANWMCLAKWESGYNTRATNYNAGDRSTDYGIFQINSRYWCNDGKTPGAVNACHLSCSALLQDNIADAVACAKRVVRDPQGIRAWVAWRNRCQNRDVRQYVQGCGV
For B1, the unfolding free energy (Homo sapiens, pH 3, 10 °C, GdnHCl, Fluorescence, glycine-HCl 40 mM, reversible: yes) came to 11.8 kcal/mol. Moreover, the unfolding free energy (Homo sapiens, pH 4, 10 °C, GdnHCl, CD, glycine-HCl 40 mM, reversible: yes) was found to be 14 kcal/mol. In addition, under setting [1], the denaturant m value worked out at 3.6 kcal/mol/M, the “denaturant midpoint (higher = more stable)” value (shortened to “denaturant midpoint”) worked out at 4.12 M and the unfolding free energy was determined as 14.7 kcal/mol.

B2: Arginine kinase wild type, P14208 (protein)
chain: MADAATIAKLEEGFKKLEAATDCKSLLKKYLSKDIFDSLKAKKTSLGATLLDVIQSGVENLDSGVGIYAPDAEAYSLFAPLFDPIIEDYHKGFKQTDKHPAKDFGDVSKFINVDPEGTFVISTRVRCGRSMEGYPFNPCLTEAQYKEMEEKVSSTLSGLEGELKGSYFPLTGMTKEVQQKLIDDHFLFKEGDRFLQAANACRYWPAGRGIYHNDNKTFLVWCNEEDHLRIISMQMGGDLGQVYRRLVSAVNDIEKRVPFSHHDRLGFLTFCPTNLGTTVRASVHIKLPKLAANREKLEEVAAKFSLQVRGTRGEHTEAEGGIYDISNKRRMGLTEFQAVKEMQDGILELIKIEKEM
As for B2, the unfolding free energy (Homarus gammarus, pH 7.4, 22 °C, GdnHCl, CD, Sodium phosphate 100 mM) was 5.98 kcal/mol.

B3: Glycodelin wild type, P09466 (protein)
chain: MLCLLLTLGVALVCGVPAMDIPQTKQDLELPKLAGTWHSMAMATNNISLMATLKAPLRVHITSLLPTPEDNLEIVLHRWENNSCVEKKVLGEKTENPKKFKINYTVANEATLLDTDYDNFLFLCLQDTTTPIQSMMCQYLARVLVEDDEIMQGFIRAFRPLPRHLWYLLDLKQMEEPCRF
Take B3: under setting [2], the denaturant m value was 1.5 kcal/mol/M, the “denaturant midpoint” value amounted to 3.5 M and the unfolding free energy was 5.4 kcal/mol.

B4: Bacteriorhodopsin wild type, P02945 (protein)
chain: MLELLPTAVEGVSQAQITGRPEWIWLALGTALMGLGTLYFLVKGMGVSDPDAKKFYAITTLVPAIAFTMYLSMLLGYGLTMVPFGGEQNPIYWARYADWLFTTPLLLLDLALLVDADQGTILALVGADGIMIGTGLVGALTKVYSYRFVWWAISTAAMLYILYVLFFGFTSKAESMRPEVASTFKVLRNVTVVLWSAYPVVWLIGSEGAGIVPLNIETLLFMVLDVSAKVGFGLILLRSRAIFGEAEAPEPSAGDGAAATSD
By Tm is commonly meant the temperature at the midpoint of the melting transition. For the protein B4, the Tm under setting [3] was determined as 96 °C; the Tm under setting [4] is 85 °C; the Tm (Halobacterium salinarum (strain ATCC 700922 / JCM 11081 / NRC-1), pH 7.5, Thermal, DSC, phosphate 190 mM, reversible: no) was 95.1 °C; the Tm (Halobacterium salinarum (strain ATCC 700922 / JCM 11081 / NRC-1), pH 7.9, Thermal, CD, glycylglycine 50 mM, NaCl 100 mM, reversible: no) came to 79 °C; the midpoint of thermal melting (Tm) (Halobacterium salinarum (strain ATCC 700922 / JCM 11081 / NRC-1), pH 9.5, Thermal, DSC, carbonate 50 mM, NaCl 100 mM, reversible: no) is 81 °C. Moreover, the “unfolding enthalpy (calorimetric)” value was 83.7 kcal/mol under setting [3] and 23 kcal/mol under setting [4]. Besides, the “unfolding enthalpy (van 't Hoff)” value under setting [4] amounted to 76 kcal/mol.

B5: Metallocarboxypeptidase inhibitor wild type, P81511 (protein)
chain: MFLLVFLCCLHLVISSHTPDESFLCYQPDQVCCFICRGAAPLPSEGECNPHPTAPWCREGAVEWVPYSTGQCRTTCIPYVE
With B5, the “denaturant midpoint” value came to 3.6 M (Hirudo medicinalis, pH 8.4, 23 °C, GdnHCl, Fluorescence, Tris-HCl 0.1 M) and 2.4 M (Hirudo medicinalis, pH 8.4, 23 °C, GdnSCN, Fluorescence, Tris-HCl 0.1 M).

B6: wild type, Q2YD82 (protein)
chain: MDCAEGRAANLPCNHSTISGNEYVYWYRQIHSQGPQYIIHGLKNNETNEMASLIITEDRKSSTLILPHATLRDTAVYYCIVYDYGQNFVFGPGTRLSVLPYIQNPDPAVYQLRDSKSSDKSVCLFTDFDSQTNVSQSKDSDVYITDKTVLDMRSMDFKSNSAVAWSNKSDFACANAFNNSIIPEDTFFPSPESSCDVKLVEKSFETDTNLNFQNLSVIGFRILLLKVAGFNLLMTLRLWSS
B6: the Tm (Homo sapiens, Thermal, fluorescence) is 54.9 °C and 53.3 °C.

B7: Phosphoglycerate kinase wild type, P18912 (protein)
chain: MNKKTIRDVDVRGKRVFCRVDFNVPMEQGAITDDTRIRAALPTIRYLIEHGAKVILASHLGRPKGKVVEELRLDAVAKRLGELLERPVAKTNEAVGDEVKAAVDRLNEGDVLLLENVRFYPGEEKNDPELAKAFAELADLYVNDAFGAAHRAHASTEGIAHYLPAVAGFLMEKELEVLGKALSNPDRPFTAIIGGAKVKDKIGVIDNLLEKVDNLIIGGGLAYTFVKALGHDVGKSLLEEDKIELAKSFMEKAKEKGVRFYMPVDVVVADRFANDANTKVVPIDAIPADWSALDIGPKTRELYRDVIRESKLVVWNGPMGVFEMDAFAHGTKAIAEALAEALDTYSVIGGGDSAAAVEKFGLADKMDHISTGGGASLEFMEGKQLPGVVALEDK
Take B7: the unfolding free energy reads like this: (Geobacillus stearothermophilus, pH 7.2, 25 °C, GdnHCl, Fluorescence, TEA 50 mM, reversible: no) 13.2 kcal/mol and 9.3 kcal/mol; (Geobacillus stearothermophilus, pH 7.2, 25 °C, GdnHCl, Fluorescence, tri-ethanolamine 50 mM, reversible: Yes) 8.76 kcal/mol.

B8: Large ribosomal subunit protein bL9 wild type, P02417 (protein)
chain: MKVIFLKDVKGKGKKGEIKNVADGYANNFLFKQGLAIEATPANLKALEAQKQKEQRQAAEELANAKKLKEQLEKLTVTIPAKAGEGGRLFGSITSKQIAESLQAQHGLKLDKRKIELADAIRALGYTNVPVKLHPEVTATLKVHVTEQK
Consider B8, for which the denaturant m value is, setting by setting: under setting [5], 1.02 kcal/mol/M; under setting [6], 1.02 kcal/mol/M; under setting [7], 1.05 kcal/mol/M. In addition, the unfolding free energy reads like this: under setting [5], 6.45 kcal/mol; under setting [6], 6.38 kcal/mol; under setting [7], 6.49 kcal/mol; (Geobacillus stearothermophilus, pH 8, Thermal, CD, Sodium phosphate 20 mM, NaCl 100 mM, reversible: Yes (>90%)) 5.77 kcal/mol.
